These results are taken from PMC10397247.

Assay in all cases: two-hybrid library CCNG1;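 note: natural log of median RNA to DNA barcode read ratio; higher means stronger binding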
The target in one test is T1, 4H348-bH.
T1 chain: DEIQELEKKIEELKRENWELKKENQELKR

Another test addresses T2, 4H741-bH.
T2 chain: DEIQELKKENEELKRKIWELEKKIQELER

A further test has as its target T3, 4H2915-bH.
T3 chain: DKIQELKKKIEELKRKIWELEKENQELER

The next test has as its target T4, 4H619-bH.
T4 chain: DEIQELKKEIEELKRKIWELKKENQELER

A further test has as its target T5, 4H492-bH.
T5 chain: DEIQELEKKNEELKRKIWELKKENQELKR

The next test addresses T6, 4H2588-bH.
T6 chain: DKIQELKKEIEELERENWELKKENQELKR

For a further test, the target named is T7, 4H40-bH.
T7 chain: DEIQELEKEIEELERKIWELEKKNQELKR

The next test has as its target T8, 4H477-bH.
T8 chain: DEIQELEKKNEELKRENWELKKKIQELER

The next test deals with T9, 4H2692-bH.
T9 chain: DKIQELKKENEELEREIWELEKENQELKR

For a further test, the target named is T10, 4H3277-bH.
T10 chain: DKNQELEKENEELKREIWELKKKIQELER

The next test has as its target T11, 4H2717-bH.
T11 chain: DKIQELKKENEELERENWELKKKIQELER

A further test addresses T12, 4H319-bH.
T12 chain: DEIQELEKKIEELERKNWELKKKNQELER

For another test, the target named is T13, 4H2839-bH.
T13 chain: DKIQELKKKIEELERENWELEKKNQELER

In another test the target is T14, 4H2503-bH.
T14 chain: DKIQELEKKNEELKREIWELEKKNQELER

In the next test the target is T15, 4H2473-bH.
T15 chain: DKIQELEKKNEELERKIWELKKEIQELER

Another test concerns the target T16, 4H3057-bH.
T16 chain: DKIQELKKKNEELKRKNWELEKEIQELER

Take DKIQELEKKNEELERKIWELKKEIQELER [4H2473-bH]: the interaction score in the test with 4H348-bH was -0.545; with 4H741-bH, -0.491; with 4H2915-bH, 0.134; with 4H619-bH, -2.35; in the test with 4H492-bH, 0.0302; with 4H2588-bH, -0.165. For the same molecule, the interaction score with 4H40-bH is -0.286; with 4H477-bH, -1.42; in the test with 4H2692-bH, 0.549; in the test with 4H3277-bH, -0.651; with 4H2717-bH, -0.241; in the test with 4H319-bH, -1.01. For the same molecule, the interaction score with 4H2839-bH was -0.0772; with 4H2503-bH, 0.0804; with 4H2473-bH it was 1.05; in the test with 4H3057-bH it was 0.309.
